Target: T1, recombinant human C1r2s2 tetramer (human, UniProt P09871 16-688; P00736 18-705)
T1 construct: C1s and C1r co-expressed in HEK293/FreeStyle 293-F and purified from conditioned medium
T1 chain 1: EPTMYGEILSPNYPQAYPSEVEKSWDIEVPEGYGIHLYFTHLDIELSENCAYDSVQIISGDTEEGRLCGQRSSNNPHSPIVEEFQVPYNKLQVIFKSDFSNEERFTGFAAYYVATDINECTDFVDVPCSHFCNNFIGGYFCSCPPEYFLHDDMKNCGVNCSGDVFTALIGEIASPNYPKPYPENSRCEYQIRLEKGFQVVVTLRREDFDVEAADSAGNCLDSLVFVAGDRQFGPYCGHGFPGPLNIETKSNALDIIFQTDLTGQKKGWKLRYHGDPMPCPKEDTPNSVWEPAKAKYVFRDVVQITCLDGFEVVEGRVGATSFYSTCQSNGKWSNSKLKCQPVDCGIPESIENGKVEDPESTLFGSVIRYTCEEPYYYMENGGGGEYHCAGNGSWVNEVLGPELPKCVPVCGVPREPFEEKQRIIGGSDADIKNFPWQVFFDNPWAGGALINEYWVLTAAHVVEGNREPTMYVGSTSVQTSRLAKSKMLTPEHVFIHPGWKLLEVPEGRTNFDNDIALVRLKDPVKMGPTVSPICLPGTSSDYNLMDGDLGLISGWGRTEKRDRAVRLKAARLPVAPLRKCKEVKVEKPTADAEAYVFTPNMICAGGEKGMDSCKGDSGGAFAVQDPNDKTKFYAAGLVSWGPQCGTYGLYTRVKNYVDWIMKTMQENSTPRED
T1 chain 2: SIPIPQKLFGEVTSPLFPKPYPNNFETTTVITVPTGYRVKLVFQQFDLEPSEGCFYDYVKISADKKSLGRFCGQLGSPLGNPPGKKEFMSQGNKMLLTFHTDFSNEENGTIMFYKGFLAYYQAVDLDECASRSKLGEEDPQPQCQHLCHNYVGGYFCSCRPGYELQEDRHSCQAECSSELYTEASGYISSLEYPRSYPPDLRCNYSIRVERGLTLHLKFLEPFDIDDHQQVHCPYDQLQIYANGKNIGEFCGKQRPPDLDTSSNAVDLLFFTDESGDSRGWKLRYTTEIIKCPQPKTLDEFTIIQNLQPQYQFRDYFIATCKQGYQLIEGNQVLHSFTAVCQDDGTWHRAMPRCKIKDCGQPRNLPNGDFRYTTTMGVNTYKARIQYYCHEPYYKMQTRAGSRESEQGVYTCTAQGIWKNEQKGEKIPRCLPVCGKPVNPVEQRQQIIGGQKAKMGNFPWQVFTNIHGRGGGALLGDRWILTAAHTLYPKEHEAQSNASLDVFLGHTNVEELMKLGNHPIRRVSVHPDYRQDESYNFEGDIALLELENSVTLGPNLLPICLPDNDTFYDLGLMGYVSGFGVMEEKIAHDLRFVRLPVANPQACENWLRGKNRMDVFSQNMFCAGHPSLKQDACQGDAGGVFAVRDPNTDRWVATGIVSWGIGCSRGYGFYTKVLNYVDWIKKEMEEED
Assay: SPR (BIACORE), antibody captured by ProL, human C1r2s2 injected at 100 nM, pH 7.4, 37 C
Method: Analysis of interaction between antibody variants and the human C1r2s2 prepared as mentioned above was carried out at pH7.4, at 37 degrees C. using BIACORE® T200 instrument (GE Healthcare) or BIACORE® 4000 (GE Healthcare). ProL (BioVision) was immobilized onto a CM4 sensorchip using amine coupling kit (GE Healthcare) according to the recommended settings by GE Healthcare. Antibodies and analytes were diluted into the respective running buffers, ACES pH7.4 (20 mM ACES (N-(2-Acetamido)-2-aminoethanesulfonic acid), 150 mM NaCl, 1.2 mM CaCl2, 1 mg/ml bovine serum albumin (BSA), 1 mg/ml CMD (CM-Dextran sodium salt), 0.05% Tween® 20 (polysorbate 20), 0.005 w/v % NaN3). Each antibody was captured onto the sensor surface by ProL. Antibody capture levels were aimed at 200 resonance units (RU). Then, recombinant human C1r2s2 was injected at concentrations of 25 and 100 nM followed by dissociation at pH7.4. The surface was regenerated using 10 mM Glycine-HCl, pH1.5.

Row | Binder | binding result
1 | AL0451 (antibody, human IgG1, kappa, V domains shown, COS0637temp with VL C94A (Kabat), already in the VL entry) VH: QVQLVESGGGVVQPGRSLRLSCAASGFTFSAYAMNWIRQPPGKGLEWIGLIYGSGSTFYASWAKGRVTISVDTSKNQFSLKLSSVTAADTAVYYCARGRSVNYNSDFHLWGQGTLVTVSS VL: DIQMTQSPSSLSASVGDRVTITCQASQSLHDKKNLAWYQQKPGQPPKLLIYGASTLESGVPSRFSGSGSGTDFTLTISSLQPEDFATYYCQGEFSASSADCNTFGQGTKVEIKR | no binding (tested: 100 nM)
2 | AL0459 (antibody, human IgG1, kappa, V domains shown, COS0637temp with VL C94L (Kabat), already in the VL entry) VH: QVQLVESGGGVVQPGRSLRLSCAASGFTFSAYAMNWIRQPPGKGLEWIGLIYGSGSTFYASWAKGRVTISVDTSKNQFSLKLSSVTAADTAVYYCARGRSVNYNSDFHLWGQGTLVTVSS VL: DIQMTQSPSSLSASVGDRVTITCQASQSLHDKKNLAWYQQKPGQPPKLLIYGASTLESGVPSRFSGSGSGTDFTLTISSLQPEDFATYYCQGEFSLSSADCNTFGQGTKVEIKR | no binding (tested: 100 nM)
3 | AL0454 (antibody, human IgG1, kappa, V domains shown, COS0637temp with VL C94F (Kabat), already in the VL entry) VH: QVQLVESGGGVVQPGRSLRLSCAASGFTFSAYAMNWIRQPPGKGLEWIGLIYGSGSTFYASWAKGRVTISVDTSKNQFSLKLSSVTAADTAVYYCARGRSVNYNSDFHLWGQGTLVTVSS VL: DIQMTQSPSSLSASVGDRVTITCQASQSLHDKKNLAWYQQKPGQPPKLLIYGASTLESGVPSRFSGSGSGTDFTLTISSLQPEDFATYYCQGEFSFSSADCNTFGQGTKVEIKR | no binding (tested: 100 nM)
4 | AL0461 (antibody, human IgG1, kappa, V domains shown, COS0637temp with VL C94N (Kabat), already in the VL entry) VH: QVQLVESGGGVVQPGRSLRLSCAASGFTFSAYAMNWIRQPPGKGLEWIGLIYGSGSTFYASWAKGRVTISVDTSKNQFSLKLSSVTAADTAVYYCARGRSVNYNSDFHLWGQGTLVTVSS VL: DIQMTQSPSSLSASVGDRVTITCQASQSLHDKKNLAWYQQKPGQPPKLLIYGASTLESGVPSRFSGSGSGTDFTLTISSLQPEDFATYYCQGEFSNSSADCNTFGQGTKVEIKR | no binding (tested: 100 nM)
5 | AL0463 (antibody, human IgG1, kappa, V domains shown, COS0637temp with VL C94Q (Kabat), already in the VL entry) VH: QVQLVESGGGVVQPGRSLRLSCAASGFTFSAYAMNWIRQPPGKGLEWIGLIYGSGSTFYASWAKGRVTISVDTSKNQFSLKLSSVTAADTAVYYCARGRSVNYNSDFHLWGQGTLVTVSS VL: DIQMTQSPSSLSASVGDRVTITCQASQSLHDKKNLAWYQQKPGQPPKLLIYGASTLESGVPSRFSGSGSGTDFTLTISSLQPEDFATYYCQGEFSQSSADCNTFGQGTKVEIKR | no binding (tested: 100 nM)
6 | AL0460 (antibody, human IgG1, kappa, V domains shown, COS0637temp with VL C94M (Kabat), already in the VL entry) VH: QVQLVESGGGVVQPGRSLRLSCAASGFTFSAYAMNWIRQPPGKGLEWIGLIYGSGSTFYASWAKGRVTISVDTSKNQFSLKLSSVTAADTAVYYCARGRSVNYNSDFHLWGQGTLVTVSS VL: DIQMTQSPSSLSASVGDRVTITCQASQSLHDKKNLAWYQQKPGQPPKLLIYGASTLESGVPSRFSGSGSGTDFTLTISSLQPEDFATYYCQGEFSMSSADCNTFGQGTKVEIKR | no binding (tested: 100 nM)
7 | AL0458 (antibody, human IgG1, kappa, V domains shown, COS0637temp with VL C94K (Kabat), already in the VL entry) VH: QVQLVESGGGVVQPGRSLRLSCAASGFTFSAYAMNWIRQPPGKGLEWIGLIYGSGSTFYASWAKGRVTISVDTSKNQFSLKLSSVTAADTAVYYCARGRSVNYNSDFHLWGQGTLVTVSS VL: DIQMTQSPSSLSASVGDRVTITCQASQSLHDKKNLAWYQQKPGQPPKLLIYGASTLESGVPSRFSGSGSGTDFTLTISSLQPEDFATYYCQGEFSKSSADCNTFGQGTKVEIKR | no binding (tested: 100 nM)
8 | AL0462 (antibody, human IgG1, kappa, V domains shown, COS0637temp with VL C94P (Kabat), already in the VL entry) VH: QVQLVESGGGVVQPGRSLRLSCAASGFTFSAYAMNWIRQPPGKGLEWIGLIYGSGSTFYASWAKGRVTISVDTSKNQFSLKLSSVTAADTAVYYCARGRSVNYNSDFHLWGQGTLVTVSS VL: DIQMTQSPSSLSASVGDRVTITCQASQSLHDKKNLAWYQQKPGQPPKLLIYGASTLESGVPSRFSGSGSGTDFTLTISSLQPEDFATYYCQGEFSPSSADCNTFGQGTKVEIKR | no binding (tested: 100 nM)
9 | AL0452 (antibody, human IgG1, kappa, V domains shown, COS0637temp with VL C94D (Kabat), already in the VL entry) VH: QVQLVESGGGVVQPGRSLRLSCAASGFTFSAYAMNWIRQPPGKGLEWIGLIYGSGSTFYASWAKGRVTISVDTSKNQFSLKLSSVTAADTAVYYCARGRSVNYNSDFHLWGQGTLVTVSS VL: DIQMTQSPSSLSASVGDRVTITCQASQSLHDKKNLAWYQQKPGQPPKLLIYGASTLESGVPSRFSGSGSGTDFTLTISSLQPEDFATYYCQGEFSDSSADCNTFGQGTKVEIKR | no binding (tested: 100 nM)
10 | AL0464 (antibody, human IgG1, kappa, V domains shown, COS0637temp with VL C94R (Kabat), already in the VL entry) VH: QVQLVESGGGVVQPGRSLRLSCAASGFTFSAYAMNWIRQPPGKGLEWIGLIYGSGSTFYASWAKGRVTISVDTSKNQFSLKLSSVTAADTAVYYCARGRSVNYNSDFHLWGQGTLVTVSS VL: DIQMTQSPSSLSASVGDRVTITCQASQSLHDKKNLAWYQQKPGQPPKLLIYGASTLESGVPSRFSGSGSGTDFTLTISSLQPEDFATYYCQGEFSRSSADCNTFGQGTKVEIKR | no binding (tested: 100 nM)
11 | AL0456 (antibody, human IgG1, kappa, V domains shown, COS0637temp with VL C94H (Kabat), already in the VL entry) VH: QVQLVESGGGVVQPGRSLRLSCAASGFTFSAYAMNWIRQPPGKGLEWIGLIYGSGSTFYASWAKGRVTISVDTSKNQFSLKLSSVTAADTAVYYCARGRSVNYNSDFHLWGQGTLVTVSS VL: DIQMTQSPSSLSASVGDRVTITCQASQSLHDKKNLAWYQQKPGQPPKLLIYGASTLESGVPSRFSGSGSGTDFTLTISSLQPEDFATYYCQGEFSHSSADCNTFGQGTKVEIKR | no binding (tested: 100 nM)
12 | AL0457 (antibody, human IgG1, kappa, V domains shown, COS0637temp with VL C94I (Kabat), already in the VL entry) VH: QVQLVESGGGVVQPGRSLRLSCAASGFTFSAYAMNWIRQPPGKGLEWIGLIYGSGSTFYASWAKGRVTISVDTSKNQFSLKLSSVTAADTAVYYCARGRSVNYNSDFHLWGQGTLVTVSS VL: DIQMTQSPSSLSASVGDRVTITCQASQSLHDKKNLAWYQQKPGQPPKLLIYGASTLESGVPSRFSGSGSGTDFTLTISSLQPEDFATYYCQGEFSISSADCNTFGQGTKVEIKR | no binding (tested: 100 nM)
13 | AL0455 (antibody, human IgG1, kappa, V domains shown, COS0637temp with VL C94G (Kabat), already in the VL entry) VH: QVQLVESGGGVVQPGRSLRLSCAASGFTFSAYAMNWIRQPPGKGLEWIGLIYGSGSTFYASWAKGRVTISVDTSKNQFSLKLSSVTAADTAVYYCARGRSVNYNSDFHLWGQGTLVTVSS VL: DIQMTQSPSSLSASVGDRVTITCQASQSLHDKKNLAWYQQKPGQPPKLLIYGASTLESGVPSRFSGSGSGTDFTLTISSLQPEDFATYYCQGEFSGSSADCNTFGQGTKVEIKR | no binding (tested: 100 nM)
14 | AL0453 (antibody, human IgG1, kappa, V domains shown, COS0637temp with VL C94E (Kabat), already in the VL entry) VH: QVQLVESGGGVVQPGRSLRLSCAASGFTFSAYAMNWIRQPPGKGLEWIGLIYGSGSTFYASWAKGRVTISVDTSKNQFSLKLSSVTAADTAVYYCARGRSVNYNSDFHLWGQGTLVTVSS VL: DIQMTQSPSSLSASVGDRVTITCQASQSLHDKKNLAWYQQKPGQPPKLLIYGASTLESGVPSRFSGSGSGTDFTLTISSLQPEDFATYYCQGEFSESSADCNTFGQGTKVEIKR | no binding (tested: 100 nM)

Source: patent publication US20240092889A1 (Chugai, published 2024)
